# Experiment: protease stability score; higher = more stable; yeast display proteolysis, trypsin and chymotrypsin;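 also: relative to predicted unfolded state with 0 unfolded-like and 1 meaning tenfold more protease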
row,Sequence,protease stability score
1,DEDQKFAMEVLELLVRAKVTGNEELLEKLLDPHTRVDINGREIHGWEEMLRILHEWRIRDLEFRVRDIHIIDGRLKIDGEERVEGEIDGRNMEIKYRTEVYYEKINGRWIVREMSVR,1.75
2,DEHREIARRHTEVWWKLLLTGDEHLLRELADPHVRLETEHEEVHGREEVVRFLTEEIMKVKNIRLELKRIEVQGDKIDVEGTRHIDGVTIRVILYIHKINGRWVVQQIQLD,1.29
3,SHEQEEARFFLDVLIEWFLTGDEEHMMKNADPNVRIEVGDKHLHGRELTYEWLKELRFKHHHVHRVTSQGDKVYYDVKVDGHINGVDRHSLEIIITLKFDGRWILKSIHVR,1.95
4,SEDKEMADWAIEIWVKSIRTGDEHTQLHLVDPHYREDVGDKEIHGRDELRRHMHEARVDEFRHKIDRMRTQGNKVHLDGIFQMKIRIDGKVDHIEFHSRLVVEKVDGRWLVKSLHIN,1.21
5,DHLEEIADKMAKDFIHIFLTGDEHLHNRLADPNVRLHVNGRDSHGRENWSRMLTQILREMRVKDIKITSSEVQGEWSVSRTRMNVDIDGKVEEIETEIIILVVNGKLESSTIVID,-0.103
6,GEDEHLAKRLLDLLIELFHTGDWDFISMLADPHVKLNVNGVQYHGRHDVTKLVHDEAEELRVHIQIHKVDWVGDKVHVDTRLVVNIDGQEHRTKTHIDMIVVNGRLNSMRIEIR,1.19
7,DEDRKHIHHMFELWVHFLHTGNEHQLINLVDPHVKLEIGDKHHHGWEQLETFERAFKKEFKHMKIRFELTDIRLINGRMEIDGRDHLHIGDKTIERHLHLVVTKVDGRWQIHSVIVD,1.48
8,SEDDKREQDYHHYMMEIILTGDFKELFDLADPNVRLRIGDKHFHGRERMLDWYKHLSDRYKNARIHLHKKDYIGEKVIFHEIIHWNGKEVELHINMVIVNGRIRSIHVEDNER,1.39
9,DEDEEEVIKFFQEFLRDELTGDWHEVHRMLDPHARLDINGKHFVGREDVTEFFKKLVNELRIHDVHIKDVRIIGEKASIDTSVDGEVNGRKRHFETRIIILKIDGQWFLHEVHMR,1.47
10,HEEEKLNHLWYEIVVHLLLTGNWKEIKKNADPHARSDINGVEYHGREEVSEVLHHVMKKMGAKVFREKEHDHQGEYMHIHFEIRVGDKLVESTLISLKVDGRWIHHEYREK,1.37
11,DEEKEELEKATEEWVHFMRTGDEDSLIKNLDPNVKNIFNGKEEIGREDLSHFIKHMGAKVVRIEDIKTQGDKVIIDTRIEVGDKHFEVTLYFEKINGRWFLHSVEIR,0.512
12,EEEERESEEKFRLLLELLRTGDEEILKHMADPNTKIVINGVDLHGWKEWHRIMRRFKNVTIRFKELWVYGDKAQARVEFDIDGKSFEMELHFVVINGRLKSIHVHSH,2.11
13,DEDRKVAEEVIRIITHESRTGDWDRISENLDPDARVEVDGRHVHGRERFVEFVLHARIEHSHVHDVSMINGRLKVDTELRGIWNGREIDTQVYIISLKIDGRWYLESIHIS,1.34
14,DEDEELVETHIRHEIRSAKTGDEESLHRLLDPNTRIEIGDKVFVGRETFTKWLRKLLHDAGVSKFEVHVRDMEIQGEKLILDGEWHINGVTIRTRIIVHKVNGRWHNKHMQME,0.582
15,SEEEEQLIRMADVFLHLFLTGDEDTLRSLFDPNAKLDINGVHSVGRENVKKAKEEWENKLGVNHHRLHEIRVVNGRTDLDGEVEWDGKRQRVRLVLVLINGRIRHEKIIFE,1.03
16,DERQHEARKVFLEWIRREVTGDFERVRHLADPNMRMDINGVEHHGRDRMSELIFRQLEEMRIEIHIRHYHVIGEKVHANIEMRVRQGDWDETRTIEIIFVVIDGRLHDYTVHIL,0.643
17,DREKEFVKEFFTMLHNVLHTGDFKLFEKMLDPRYRVEIGDKEAHGREEVLRWFHEYMRIAGIDHIELHLHNFDYQGDKVRMDTIVILIQGDKTFHLDVRIVVKKIDGQWINQTERIH,1.42
18,DELNELNKEAFETYHQISETGNETMHSRNADPHVRIDINGVEYHGWEHAERLWKNLGVKHIQFHDIEIQGNKLIITVIVEVNGQETRSEVILLKINGRWLIHSLSFR,1.06
19,DEEEKLFHDFASHFVRNFLTGNWDMIKRNADPTVQAHIGDKEIHGWDRIVDHLEERLRKIKGMRHHPRRLVFIGEKTYLDTELHFNGVHVETILIVIVVNGRLKSVEFHIE,0.695
20,SEDEEIMKDLLELFFEAMKTGDEDTLRHLFDPNARFVIGDKLLHGREEYIRYLQEWRVEIEHFNIRRLELVDGRIHLEGHMHLHVQYGDKHERRTHHLEWEIIKINGRWIFRSVRIN,1.48
21,SEYYEESKRMAEEHQHMRETGDEDRLRHLMDPTTKVEVGDKEFHGREWWHEFYKRFDHIEFRIHDIKLIDGVAIIQSIIIVRQGDKSDTLHVTIRITKVNGRWRTKSFEVI,1.48
22,SELEEITRRVWERLVRDLRTGDEKSLQEMLDPNVRSDFNGVELIGRELATKLIAELRIHDVKVEDVKFQGDKMTLDTKIDGEVNGKRHEFKHTLIFVKVDGQWMIETEEFH,1.26
23,SEDEKHSEHAIHLIEHSMHTGDEKTLRDNIDPHVRVHINGRDVIGRELWMEILRRDLEELGVERVDFKTHHVEVFNGRMNIDGILTQGDKRVKVQIHYTKINGRWILEELIIR,0.841
24,DDENKQMEEAIWIWKYMVETGDERINHEFADPHARVDINGKEHHGREEIERFLIEFSEKVKNLRVEIEDFRSINGRVDVILRLTVNGKRVETRVHAIKVDGKWLIKEVRFH,0.624
25,DEEERYIIEMLRILAEAILTGDEDETHNQLDPDVRIEWNGVELHGRDELLRFMHHLRIDIKRVEFRSITKVDGRVHTDGLLDVTYFIDGRVFRRRTHTELIILKVDGRWTFHSIKID,2.19

row,Sequence,protease stability score
1,SHEKELNERAFRILIEELMTGDEDSWRKLADPNTRHIIDGQTYHGMDFFHEHVRKMGMTIHHVELEDYRFQGEKAVLILHIDGRQGEKHDKIRITIFIEKVDGRWILREVRIG,1.17
2,SEHEHIAEKMSELLREIVETGDFEQLERLADPHVKLNVDGRNFHGMERFRELKERIRREFGVDHIHVEVERVEVIDGVVINHTKLIIEQGDKRRESRTTLIINKVNGQWRLDSVRVE,0.488
3,DEDEKSVKYAFTMYMQNITTGDEDTLKKYLDPNVKLHFNGVNLHGMESLNKWIREIRHRVRHVHFKDVRVIDGVLIVHIEWEVREDIDGQETEDRYIVRMIVLKIDGKWILRESQIL,1.74
4,TELEEDIVRAWERFVRSLETGNERSIRELMDPNPRIVIGDYEFHGREAIEELLRRIDVIKSVELRHFRLQGEKARLDTTETGHIDGRDVTYETRIISLKVNGVWVLKRIEVR,1.53
5,DEEERFSEEALRRIWHALETGDERIQEDLADPNVRIDVGEKSYHGREKWSEMIRHMRLHDIKIHHVIVINGRMRFHGRMDGNIDGKRIDTEVEIHFEKVDGKWLVRKIRIH,2.25
6,SEEHKEAREFLEEWITFIHTGDEDMIHKMLDPDTRSNINGRDLHGRELAVKIIIEEVRRYRGVQIRMEREHVVDGRMESTIRVHQGEKEFEVIVHFVKINGRWRLKWIEIR,1.3
7,DEDKEAKEESWRIYLHSLLTGDEKEIERLVDPNARLDINGQEHHGRHMVLTHVLRLMVRADHLDDIEIHHMEVIDGQLHSDVILKITINGRDVHIREHYLLRKVNGRWYFKSIEVR,1.7
8,SEEEHELKHWMKLFKHMIETGDWDSLVHYLDPHTRMHVGEFHHHGRHLMLKAFHDFLREMGAKHSDHKDSEITIQGDKVELTLDTRSQVGDKEFNVRIININRKVNGRWIIHSIIIEVE,1.09
9,DEEKEEIELAIRLTEKMLKTGDEELWRENADPNARFVTENHDDHGREVIVKWVHEMRRKFKNMRLEIEDVRTFNGRLEIHLRLNVNGRDLKINIIVEKVNGRWFLREIEIQ,1.74
10,SEEDEKKEEETRLMLEWWRTGDEHAIARNMDPDARLEVDGKERHGREEVLRFISEMLKRLGVDHVRITDWRIIGDFVEVDLSIEVGDKSRKFHLHFFIIDGRIKEIKIDER,1.39
11,DEEDEQAKELSRIMMEVLRTGDEDMFTKLLDPNVRLEIGEKEDHGRERAMHWLIRFLYRIPNARFIWRDVDVHRINGRVLDTSDLQVRINGRDFKTFVITHIVKIDGRWRVTKLEVHIE,1.56
12,KEHNDALELMYHWLIHLWKTGDERDIYELFDPNVRVDVNGRELHGMELVSHIELREMKRLGFKVIHIELTSVRYIGDKIEIDTIFHLHVGEYTERREHHILSYKVDGRWFVKESEVN,1.18
13,SEDEKAVEDLFKLWVRDLVTGDEDSINKLLDPNARVEIGDKEFHGMEDVVRFLLHIRFKHVEMHDMRVQGNKATLHVDIRGVVDGRDRELDTILIIEKVNGKWYLHHQKIN,1.48
14,KEQDHLIKNVLERLFRAFHTGNEEELEKLIDPHAMIIIGDKHFHGREEVLHTLVNLVNEIRFRDMELKDSRLFDGRVNIDLDEHIRQGDKHHLYEVHLILYKFDGRWFIRKFEIR,1.46
15,DEENHHTREIFKMTLKEVFTGNEEMTTRLLDPHVRVQVGDKTIHGWKHFTHIFFRLRHEFGVDHVQLRHLEIIGNKAVIHFSVYVGEWTYEFTIHALKVNGRWVLESLEVHQI,1.5
16,DEIQRLMKYVFEEWVKWFLTGDEEKFNKMVDPDVRLIVNGQHSHGREKANEMWEIYYERFDYIHEFRVHSIRIQGDKVHVDVRLIGRQGDKTIDTRTEIHLVIIDGRIKRAEVRVE,2.62
17,SEEQEKSEEFWRLVVEFLLTGDEHQILNLLDPNVLTEIGDKKYHGRELASEVLRRYADEIRLKEVELHDRDEVNGVLHLHTVVRGEYNGREINLESHWELEKVDGRWHIKRVEIR,1.6
18,SEHEEKSKEASEQMFQILRTGDWHKWLELLDPHYQLEIGDKRFHGMEISSELLRHLLEELGVERVEVYVKHQETQGDKVINDGSVDINGRELRMILYARKVDGRWVLKSMKVK,1.39
19,SEEEEEMKRFIEDELRAWRTGDEDLIHEQFDPHVRVIIGEFEYHGRELLHEMFNRIDHIEHIELRIHHVHLQGDKAHLEVEEREHGVFDGKRINVSREINIIIHKIDGRWVHTIIIIE,0.606
20,EEEKRISDRSLEHLVRSWWTGDEQLYTELADPNVRVEIGDKEYHGREDARHALRRELEHIRIKHIVYRRFEFVGEYIHVDTRMLVDVNGVHILRTMHILEFKFDGRWHLTSLIIR,1.21
21,REEEEHLKKFIEDHIRDLRTGDEQKVADQADPHVRTRFNGVDYHGREDHMKLMKHIRFEEMRIEDVKVQGDKAHIDSIITIEVDGQRETIKVHIIIVKIDGRWLLKQSHFN,0.396
22,SEEEELIHILERLIIEFRRTGNEEAWMNLMDPHAKVEIGDFDLIGRDEVSRWLHHLRIDDIHITLRRFRDIDGRVISYGEENIRVDFNGQHVEFRRRSILILFKVDGQWYIESIHVH,0.959
23,EEEEEHMEHMMRLTLQLFKTGDEETFIDLLDPNVKVHINGVTVHGWDRLIRVKEMIDKEIRFRDFIIHHIRVVDGRAEMEGTVTGDVNGQSRIRDWRSILVVIDGKIKSISWQFN,2.27
24,DEEEEALRLAFELIYTVLRTGDEEMWRRMADPDTKIDIGDKHFHGREHVEYVLRELHKRIDHIDHSHIDHVHVQGDKVHMDTTIVGTYDGQRTNLKTSFIVVKINGKWVMTSVRFR,1.38
25,DEDKEMIRHAVEILLKTLYTGDWETLERLLDPNARINVDGVDIHGRDVVKHWLDRADHVSIHDSHVERFRFVNGRLTIHIKEHSRFEIGDKTMRVELKRNLFILKIDGRWILESERIV,1.01

# Source: the NTF2 design screens of Basanta et al. (2020)
